Laboratory results from patent publication US7977317B2, “Compositions and methods for modulating blood-brain barrier transport” (Raptor Pharmaceutical Inc., priority 2001, dated 2011).

What was measured:
LRP = LRP (Homo sapiens, UniProt Q07954); settings: Tables 1-3; cited from earlier work
VLDL-R = VLDL-R (Homo sapiens, UniProt P98155); settings: Tables 1-3; cited from earlier work
Megalin = Megalin (Homo sapiens, UniProt P98164); settings: Tables 1-3; cited from earlier work
human brain capillaries = experiment: Accumulation/uptake of [125I]-p97 in isolated human brain capillaries; format: binding
Description: FIG. 5. Accumulation of p97 in human brain capillaries. Accumulation of [^125I]-p97 was measured at 37° C. for 1 h in isolated human brain capillaries (100 μg/assay). The incubation medium contained [^125I]-p97 and a final concentration of 100 nM p97 in Ringer/Hepes solution. The accumulation of [^125I]-p97 was performed in the presence or absence of 5 μm cold-p97, holo-transferrin or lactoferrin. […] The suspension was filtered under vacuum through a […] pore size Millipore filter. The filter was rinsed with 8 ml of stop solution, and the radioactivity was counted. Nonspecific binding of the radioactivity to the capillaries was determined by the addition of the ice-cold stop solution to the capillaries before adding the incubation medium. This value was subtracted from accumulation values obtained following an 1 h incubation. The results were expressed as ng of [^125I]-p97 accumulated per μg of brain capillaries.
FIG. 16 illustrates the identification of a p97 receptor according to ligand specificity. FIG. 16a, Uptake of [^125I]-p97 into human brain capillaries. The uptake of [^125I]-p97 at 100 nM (control) into isolated human brain capillaries was measured for 1 h at 37° C. in the presence of a 50-fold molar excess of unlabelled p97, human holo-transferrin or human lactoferrin. (*[…] Student's t-test (n=5); FIG. 16b, Effect of RAP on [^125I]-p97 transcytosis across BBCEC monolayers. Apical-to-basal transport of [^125I]-p97 was measured in the presence (closed circles) or absence (open circles) of RAP (25 μg/ml) (n=5); FIG. 16c, Inhibition of bovine [^125I]-lactoferrin transport by p97. Transcytosis of bovine [^125I]-lactoferrin (50 nM) was measured in the presence (closed circles) or absence (open circles) of unlabelled p97 (5 μM) at 37° C. (n=3).
A. Isolation of human brain capillaries. Capillaries of the blood-brain barrier were isolated from human brain cortex by a procedure previously described by Dallaire, et al., J. Biol. Chem., 267:22323-22327 (1992) with slight modifications. Human brains were obtained post-mortem. The brain was cleared of meninges, superficial large blood vessels and choroid plexus. All the following procedures were performed at 4° C. The cerebral cortex was homogenized in 5 volumes of Ringer/Hepes solution with a Polytron (Brinkman Instruments, Rexdale, Ontario, Canada). The homogenate was mixed with an equal volume of Dextran T-70 (27 g in 100 ml of Ringer/Hepes). The suspension was centrifuged at 25,000 g for 10 min. The pellet was resuspended in 30 ml of Ringer/Hepes and passed through a 250 μm nylon mesh screen. […]
B. p97 accumulation in human brain capillaries. […] Accumulation of [^125I]-p97 was measured at 37° C. for 1 h in isolated human brain capillaries (100 μg/assay). […]

BBCEC monolayers = experiment: Transcytosis across BBCEC monolayers (in vitro BBB model); format: cell-based, bovine
Source text: FIG. 10 assesses the ability of several agents to interfere with p97 transyctosis. FIG. 10a, transcytosis of I125-P97 was compared in the presence of cold p97 (5 micromolar), Lf (5 micromolar), and Tf (5 micromolar). […] FIG. 10c, RAP, a known poly-peptide inhibitor of the LDL-Receptor family was applied to the cells (25 micrograms/ml).
FIG. 11 examines the accumulation and transcytosis of p97. FIG. 11a, of [^125I]-p97, [^125I]-BSA and [^125I]-holo-transferrin one hour after i.v. injection. The radioactivity in brain was compared between the three compounds. (n=3); FIG. 11b, Accumulation of p97 and transferrin into the mouse brain parenchyma. In situ brain perfusion was performed with human [^125I]-p97 or [^125I]-holo-transferrin at a final concentration of 10 nM via a catheter inserted in the right common carotid artery. The volume of distribution (VD) of [^125I]-proteins were obtained in the whole brain homogenate (white bars), in brain capillaries (solid bars) and in brain parenchyma (hatched bars) after isolation of the right hemisphere and capillary depletion. Results were obtained for p97 (n=10) and for holo-transferrin (n=6); FIG. 11c, Transcytosis of p97 across BBCEC monolayers. Transcytosis experiments were performed 37° C. (open circles) and 4° C. (closed circles) with BBCEC monolayers. [^125I]-p97 (1 mg/ml) was added to the upper side of the cell-covered filter. One representative experiment is shown (n=4); FIG. 11d, Preferential transport of p97 across the BBCEC monolayers. Apical-to-basal and basal-to-apical transport of [^125I]-p97 (25 nM) was measured for 2 hrs at 37° C. At the end of the experiment, [^125I]-p97 was assessed in the lower or upper chambers of each well by TCA precipitation (n=4).
FIG. 13 illustrates the transcytosis and accumulation of p97 and transferrin in BBCEC monolayers. FIG. 13a, Transcytosis experiments were performed at 37° C. (solid bars) or 4° C. (white bars). [^125I]-p97 or bovine [^125I]-holo-transferrin (1 mg/ml) was added to the upper side of the cell-covered filter. At the end of the experiment, radiolabelled proteins were measured in the lower chamber of each well by TCA precipitation (n=4). Controls were also performed at 37° C. with denatured [^125I]-p97 or bovine [^125I]-holo-transferrin boiled for 30 min (grey bars) (n=2); FIG. 13b, Biospecific interaction analysis was performed with native or boiled p97 for the indicated times. MAb L235 (5 μg) was immobilized on a sensor chip (SM5) using standard procedures incorporating NHS, EDC and ethanolamine. Native and boiled p97 (5 to 30 min) diluted at 1 mg/ml in Ringer/Hepes was cooled and injected into the BIAcore. The surface plasmon resonance response obtained for native p97 and boiled p97 was plotted (in relative units (RU)) as a function of time; FIG. 13c, The accumulation of both proteins into BBEC cells were also measured. Briefly, after incubation at 37° C. (solid bars) or 4° C. (white bars) with either [^125I]-protein, cells were washed four times with cold PBS. Accumulation of both denatured proteins (grey bars) was also measured at 37° C. Filters were then removed, and the radioactivity associated with the cells was quantified (n=3).
FIG. 14 illustrates the stability of p97 and integrity of the BBCEC monolayers following p97 transcytosis. FIG. 14a, Transcytosis experiments were performed at 37° C. and 4° C. by adding p97 (1 mg/ml) to the upper compartment. At the end of the experiment, 50 μl from each lower chamber was used for SDS-polyacrylamide gel electrophoresis. After electrophoresis, the gels were stained with Coomassie Blue. A standard curve was also made with known amounts of recombinant p97 (0-2 μg); FIG. 14b. The gels were dried and scanned to quantify the amount of intact p97 that crossed the BBCEC monolayers at 37° C. and 4° C. (n=3); FIG. 14c, Effect of p97 on sucrose permeability of BBCE cell monolayers co-cultured with astrocytes. […]

ER-2 = target: T1, ER-2 (Homo sapiens, UniProt Q14114); settings: Tables 1-3; cited from earlier work
T1 sequence (Q14114 33-963): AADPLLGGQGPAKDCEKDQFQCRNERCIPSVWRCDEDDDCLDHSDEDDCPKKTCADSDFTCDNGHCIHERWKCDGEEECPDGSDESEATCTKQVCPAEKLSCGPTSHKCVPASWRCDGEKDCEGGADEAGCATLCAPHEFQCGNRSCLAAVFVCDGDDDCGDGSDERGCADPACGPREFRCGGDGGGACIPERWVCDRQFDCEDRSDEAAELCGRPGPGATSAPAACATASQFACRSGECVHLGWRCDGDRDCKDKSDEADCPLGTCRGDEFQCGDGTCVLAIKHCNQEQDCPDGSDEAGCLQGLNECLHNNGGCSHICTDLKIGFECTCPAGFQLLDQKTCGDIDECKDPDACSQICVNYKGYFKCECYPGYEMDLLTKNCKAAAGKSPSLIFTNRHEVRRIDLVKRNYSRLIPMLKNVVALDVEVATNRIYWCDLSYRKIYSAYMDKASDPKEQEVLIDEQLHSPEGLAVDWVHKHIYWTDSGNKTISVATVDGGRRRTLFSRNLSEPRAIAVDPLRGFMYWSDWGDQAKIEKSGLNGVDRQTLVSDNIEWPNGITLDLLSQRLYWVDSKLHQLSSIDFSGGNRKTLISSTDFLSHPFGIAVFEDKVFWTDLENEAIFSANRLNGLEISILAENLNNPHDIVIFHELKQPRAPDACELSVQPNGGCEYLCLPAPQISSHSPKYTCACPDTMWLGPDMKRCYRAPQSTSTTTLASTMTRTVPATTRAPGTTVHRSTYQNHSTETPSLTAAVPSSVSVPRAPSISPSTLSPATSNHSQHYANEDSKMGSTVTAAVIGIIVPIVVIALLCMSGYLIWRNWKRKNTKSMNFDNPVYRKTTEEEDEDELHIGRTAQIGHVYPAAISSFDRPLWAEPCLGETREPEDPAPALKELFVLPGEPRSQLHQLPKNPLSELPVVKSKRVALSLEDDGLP

LR11 = LR11 (Homo sapiens, UniProt Q92673); settings: Tables 1-3; cited from earlier work
LDL-R = LDL-R (Homo sapiens, UniProt P01130); settings: Tables 1-3; cited from earlier work

Megalin, sequence (P98164 26-4655, species assumed): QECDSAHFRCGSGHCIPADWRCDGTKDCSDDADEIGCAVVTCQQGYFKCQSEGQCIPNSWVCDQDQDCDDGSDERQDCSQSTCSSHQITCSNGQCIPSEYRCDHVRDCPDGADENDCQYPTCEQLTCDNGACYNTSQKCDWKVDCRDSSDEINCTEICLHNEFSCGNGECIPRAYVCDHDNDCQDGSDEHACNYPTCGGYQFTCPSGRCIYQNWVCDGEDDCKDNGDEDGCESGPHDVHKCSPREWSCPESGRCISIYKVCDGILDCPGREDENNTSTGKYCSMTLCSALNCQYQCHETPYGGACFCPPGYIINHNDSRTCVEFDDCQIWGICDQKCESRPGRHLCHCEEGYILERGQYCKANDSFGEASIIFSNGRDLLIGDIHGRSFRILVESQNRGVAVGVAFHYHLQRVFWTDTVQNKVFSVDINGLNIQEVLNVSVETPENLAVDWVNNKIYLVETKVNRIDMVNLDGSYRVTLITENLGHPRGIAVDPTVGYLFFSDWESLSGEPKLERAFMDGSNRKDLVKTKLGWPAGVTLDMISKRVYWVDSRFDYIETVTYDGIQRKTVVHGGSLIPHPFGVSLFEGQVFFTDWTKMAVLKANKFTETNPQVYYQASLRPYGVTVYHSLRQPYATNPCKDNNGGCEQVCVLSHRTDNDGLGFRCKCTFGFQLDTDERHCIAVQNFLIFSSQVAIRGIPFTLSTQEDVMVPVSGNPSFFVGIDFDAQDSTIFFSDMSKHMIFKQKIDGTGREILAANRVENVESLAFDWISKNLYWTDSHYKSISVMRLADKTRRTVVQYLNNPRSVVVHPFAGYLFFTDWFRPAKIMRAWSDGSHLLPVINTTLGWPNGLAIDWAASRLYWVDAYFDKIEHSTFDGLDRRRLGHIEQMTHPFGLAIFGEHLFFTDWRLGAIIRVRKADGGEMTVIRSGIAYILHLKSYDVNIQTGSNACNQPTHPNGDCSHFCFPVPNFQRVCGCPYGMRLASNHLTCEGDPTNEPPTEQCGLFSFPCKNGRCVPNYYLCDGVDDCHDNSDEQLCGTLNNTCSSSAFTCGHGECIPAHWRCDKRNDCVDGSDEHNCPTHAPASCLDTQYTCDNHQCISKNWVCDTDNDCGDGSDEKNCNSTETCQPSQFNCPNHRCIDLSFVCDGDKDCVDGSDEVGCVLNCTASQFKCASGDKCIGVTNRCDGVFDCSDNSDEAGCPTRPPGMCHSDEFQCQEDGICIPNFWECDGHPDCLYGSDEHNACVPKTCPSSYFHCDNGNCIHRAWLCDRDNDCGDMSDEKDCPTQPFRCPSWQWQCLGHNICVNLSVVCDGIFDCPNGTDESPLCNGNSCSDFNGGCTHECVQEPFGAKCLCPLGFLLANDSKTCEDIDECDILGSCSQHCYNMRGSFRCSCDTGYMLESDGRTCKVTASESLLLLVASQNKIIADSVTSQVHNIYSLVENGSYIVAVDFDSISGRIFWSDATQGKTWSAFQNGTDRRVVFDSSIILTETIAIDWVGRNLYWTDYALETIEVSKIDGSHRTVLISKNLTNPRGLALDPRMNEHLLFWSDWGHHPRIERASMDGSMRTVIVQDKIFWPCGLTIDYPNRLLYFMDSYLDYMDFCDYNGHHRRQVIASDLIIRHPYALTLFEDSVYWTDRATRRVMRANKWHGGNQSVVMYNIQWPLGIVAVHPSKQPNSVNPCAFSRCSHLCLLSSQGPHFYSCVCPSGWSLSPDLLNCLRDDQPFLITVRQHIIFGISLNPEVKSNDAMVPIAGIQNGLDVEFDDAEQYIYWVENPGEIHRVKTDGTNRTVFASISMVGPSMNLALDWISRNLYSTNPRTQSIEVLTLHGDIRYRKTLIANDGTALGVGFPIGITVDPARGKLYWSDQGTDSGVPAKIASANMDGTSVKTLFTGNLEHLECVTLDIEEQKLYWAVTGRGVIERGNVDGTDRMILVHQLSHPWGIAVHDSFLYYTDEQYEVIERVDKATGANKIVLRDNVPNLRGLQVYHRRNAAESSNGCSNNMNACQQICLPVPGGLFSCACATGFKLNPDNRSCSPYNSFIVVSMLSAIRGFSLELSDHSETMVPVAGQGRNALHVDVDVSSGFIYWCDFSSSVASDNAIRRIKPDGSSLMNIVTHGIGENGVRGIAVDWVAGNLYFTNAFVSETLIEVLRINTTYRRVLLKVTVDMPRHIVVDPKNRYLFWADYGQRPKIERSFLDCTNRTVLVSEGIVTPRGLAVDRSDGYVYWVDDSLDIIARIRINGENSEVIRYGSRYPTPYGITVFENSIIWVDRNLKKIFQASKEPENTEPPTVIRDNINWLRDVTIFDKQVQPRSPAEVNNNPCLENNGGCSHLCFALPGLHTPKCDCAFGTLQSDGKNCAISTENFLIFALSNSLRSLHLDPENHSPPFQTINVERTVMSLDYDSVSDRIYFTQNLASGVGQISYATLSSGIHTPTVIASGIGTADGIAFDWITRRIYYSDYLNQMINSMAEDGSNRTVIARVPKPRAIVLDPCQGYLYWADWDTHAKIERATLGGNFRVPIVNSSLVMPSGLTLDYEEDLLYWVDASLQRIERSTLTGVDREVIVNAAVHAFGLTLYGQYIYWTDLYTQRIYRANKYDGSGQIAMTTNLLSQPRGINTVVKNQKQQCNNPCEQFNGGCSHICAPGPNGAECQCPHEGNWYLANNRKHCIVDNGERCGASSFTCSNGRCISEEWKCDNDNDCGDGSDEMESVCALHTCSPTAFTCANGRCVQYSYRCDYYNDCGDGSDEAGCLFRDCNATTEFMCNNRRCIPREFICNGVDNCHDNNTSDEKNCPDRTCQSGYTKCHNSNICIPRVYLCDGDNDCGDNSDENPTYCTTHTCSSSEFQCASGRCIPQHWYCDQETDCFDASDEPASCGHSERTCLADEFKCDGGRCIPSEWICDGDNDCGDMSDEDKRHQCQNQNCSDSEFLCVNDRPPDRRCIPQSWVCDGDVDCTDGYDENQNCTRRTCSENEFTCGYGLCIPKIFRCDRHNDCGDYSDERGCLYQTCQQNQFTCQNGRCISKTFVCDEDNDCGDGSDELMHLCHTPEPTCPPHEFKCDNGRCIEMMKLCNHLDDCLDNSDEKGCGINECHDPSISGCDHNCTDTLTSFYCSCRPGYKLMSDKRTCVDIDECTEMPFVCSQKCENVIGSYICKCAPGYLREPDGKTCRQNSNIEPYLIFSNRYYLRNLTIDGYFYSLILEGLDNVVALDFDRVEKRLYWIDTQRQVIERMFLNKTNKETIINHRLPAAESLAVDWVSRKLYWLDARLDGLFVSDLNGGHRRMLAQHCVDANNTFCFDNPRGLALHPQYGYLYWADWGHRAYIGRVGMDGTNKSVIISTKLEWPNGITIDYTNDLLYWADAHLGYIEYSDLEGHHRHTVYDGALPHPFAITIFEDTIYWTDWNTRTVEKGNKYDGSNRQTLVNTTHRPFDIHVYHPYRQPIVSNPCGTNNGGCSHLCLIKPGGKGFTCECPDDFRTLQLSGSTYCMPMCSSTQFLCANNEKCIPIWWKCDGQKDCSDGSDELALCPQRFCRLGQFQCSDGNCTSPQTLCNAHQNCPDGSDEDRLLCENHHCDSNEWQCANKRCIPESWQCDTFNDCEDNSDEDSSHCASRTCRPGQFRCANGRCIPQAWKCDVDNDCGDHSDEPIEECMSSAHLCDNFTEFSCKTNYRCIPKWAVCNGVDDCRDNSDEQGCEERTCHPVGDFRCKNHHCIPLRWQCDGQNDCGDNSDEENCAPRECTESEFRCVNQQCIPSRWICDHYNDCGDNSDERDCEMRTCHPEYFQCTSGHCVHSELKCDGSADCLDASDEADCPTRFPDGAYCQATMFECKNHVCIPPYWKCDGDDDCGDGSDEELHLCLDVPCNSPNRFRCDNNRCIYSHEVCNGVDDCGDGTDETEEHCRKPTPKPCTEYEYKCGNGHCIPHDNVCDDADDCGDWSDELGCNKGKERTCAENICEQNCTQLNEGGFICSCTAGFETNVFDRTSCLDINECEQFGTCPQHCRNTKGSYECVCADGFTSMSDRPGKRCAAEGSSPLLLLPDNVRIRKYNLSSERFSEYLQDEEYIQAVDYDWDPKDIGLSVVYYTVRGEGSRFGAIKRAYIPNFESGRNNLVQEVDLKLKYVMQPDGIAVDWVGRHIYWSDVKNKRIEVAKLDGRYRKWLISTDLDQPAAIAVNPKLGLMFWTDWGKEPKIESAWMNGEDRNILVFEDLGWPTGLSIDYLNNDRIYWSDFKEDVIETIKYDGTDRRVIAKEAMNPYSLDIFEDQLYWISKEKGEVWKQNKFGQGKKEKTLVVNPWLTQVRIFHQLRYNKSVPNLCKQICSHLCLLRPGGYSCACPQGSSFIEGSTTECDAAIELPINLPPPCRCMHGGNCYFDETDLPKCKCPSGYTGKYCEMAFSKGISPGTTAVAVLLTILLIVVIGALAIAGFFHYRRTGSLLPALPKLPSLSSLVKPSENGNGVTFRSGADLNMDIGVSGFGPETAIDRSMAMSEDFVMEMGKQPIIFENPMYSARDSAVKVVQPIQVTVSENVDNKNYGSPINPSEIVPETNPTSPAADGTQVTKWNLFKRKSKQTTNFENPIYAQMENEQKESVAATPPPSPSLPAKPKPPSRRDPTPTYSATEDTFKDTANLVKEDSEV

Row | Substance | Binding to LRP (LRP) | Binding to Megalin (Megalin) | other results
1 | Tissue factor inhibitor: tissue factor inhibitor | Yes |  | 
2 | βAPP: β-amyloid precursor protein | Yes |  | Binding to VLDL-R (VLDL-R): Yes
3 | tPA: tissue type plasminogen activator | Yes | Yes | 
4 | ApoJ/clusterin: ApoJ/clusterin |  | Yes | 
5 | Thrombospondin-1: thrombospondin-1 | Yes |  | Binding to VLDL-R (VLDL-R): Yes
6 | β-amyloid peptide 1-40: β-amyloid peptide 1-40 [reference compound] |  |  | Competition with p97 for receptor binding in human brain capillaries, repeat experiment (human brain capillaries; performed identically to FIG. 5 (FIG. 6)): competes with p97 for receptor binding; Effect on transcytosis of 125I-p97 (BBCEC monolayers; competitor 5 micromolar (FIG. 10a, 10b)): failed to slow or reduce
7 | Gentamycin [reference compound] | Yes | Yes | 
8 | Polymixin B [reference compound] | Yes | Yes | 
9 | ApoE: Apolipoprotein E | Yes | Yes | Binding to VLDL-R (VLDL-R): Yes; Binding to ER-2 (ER-2): Yes; Binding to LR11 (LR11): Yes
10 | Albumin |  | Yes | 
11 | ApoB100: apolipoprotein B 100 |  | Yes | Binding to LDL-R (LDL-R): Yes
12 | human holo-transferrin: human holo-transferrin |  |  | Inhibition of the uptake of [125I]-p97 into isolated human brain capillaries (human brain capillaries; 50-fold molar excess, [125I]-p97 100 nM, 1 h at 37° C. (FIG. 16a)): had no effect; Reduction of apical-to-basal transport of [125I]-p97 (BBCEC monolayers; 200-fold molar excess of competitor, [125I]-p97 25 nM (FIG. 15a, 15b)): had no impact
13 | Activated α2-macroglobulin: activated α2-macroglobulin | Yes | No | 
14 | Thyroglobulin: thyroglobulin |  | Yes | Binding to ER-2 (ER-2): Yes; Binding to LR11 (LR11): Yes
15 | Pseudomonas Exotoxin A | Yes | No | 
16 | Plasminogen: plasminogen |  | Yes | 
17 | α1-chymotrypsin/cathepsin G: protease/inhibitor complex | No | Yes | 
